Experimental data: patent publication US8445662B2, “Mycobacterium tuberculosis fusion protein and uses thereof” (The 309th Hospital, The People's Liberation Army, priority 2006, dated 2013)

Settings: guinea pig, in vivo

With “Bovine serum albumin (BSA): positive control group in the guinea pig anaphylaxis test” the “Averaged weight (g), during excitation” value was 447.1 ± 41.4 g, the “Averaged weight (g), sensitized upon the last injection” value was 380.6 ± 23.6 g and the “Reaction level + (number of guinea pigs)” value was 0. The “Reaction level ++ (number of guinea pigs)” value was 0, the “Reaction level +++ (number of guinea pigs)” value was 3 and the “Reaction level ++++ (number of guinea pigs)” value was 0. The “Reaction level − (number of guinea pigs)” value was 3.
